Results: publication PMC12171143, “The Arabidopsis E3 ubiquitin ligase PUB13 synergistically interacts with BON1 to regulate plant flowering and immunity” (Frontiers in Plant Science, 2025)

Target: T1, GST-PUB13 (Arabidopsis thaliana, UniProt Q9SNC6 1-660)
T1 construct: also called PUB13-GST; source: purified fusion protein from pGEX-6p-1; E. coli BL21 is named for the PUB13 construct in pGEX-6P-1 of the ubiquitination assay
T1 sequence (looked up): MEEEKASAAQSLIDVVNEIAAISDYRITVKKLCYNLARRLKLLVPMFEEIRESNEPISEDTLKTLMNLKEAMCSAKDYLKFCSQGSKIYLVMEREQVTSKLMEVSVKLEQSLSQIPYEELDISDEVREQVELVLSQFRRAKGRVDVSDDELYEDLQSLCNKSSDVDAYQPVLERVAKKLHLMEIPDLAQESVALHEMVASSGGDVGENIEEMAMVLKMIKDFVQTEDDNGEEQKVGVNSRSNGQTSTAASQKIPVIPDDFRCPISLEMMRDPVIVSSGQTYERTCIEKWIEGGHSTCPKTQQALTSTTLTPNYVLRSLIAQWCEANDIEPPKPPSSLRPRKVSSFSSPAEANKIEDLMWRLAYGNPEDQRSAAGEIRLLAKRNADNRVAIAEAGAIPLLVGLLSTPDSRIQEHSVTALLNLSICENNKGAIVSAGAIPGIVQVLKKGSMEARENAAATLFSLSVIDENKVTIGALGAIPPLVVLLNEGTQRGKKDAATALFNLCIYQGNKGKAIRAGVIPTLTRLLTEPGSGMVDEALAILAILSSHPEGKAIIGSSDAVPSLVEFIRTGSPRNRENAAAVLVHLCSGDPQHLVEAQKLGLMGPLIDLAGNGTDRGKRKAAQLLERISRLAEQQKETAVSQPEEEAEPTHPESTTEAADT
Test: pull-down; purified fusion proteins mixed, glutathione Sepharose beads 4 h at 4°C, five washes with 1x TBST, eluate blotted with anti-MBP
Conditions: both partners purified

B1: MBP-BON1 (natural protein, Arabidopsis thaliana, UniProt Q941L3 1-578, looked up)
chain: MGNCCSDVASGAGATAGVGGSGSSAALGATNDALDYYLKSKGFNGLFSQIELSFSASNLRDRDVLSKSDPMVVVYQKEKDATLSEVFRSEVVLNSLAPKWIKKFIVAYHFETVQTLVFRVYDVDTKFQNSREEMLKLDEQQFLGEATCALSEIITKSTRTSTLELKRKDGFAPQAQPHHGKLIIHAEESLASKISTEIVFRCSNLESKDLFSKSDPFLVVSKIVEHGTPIPVSKTEVRKNDLNPIWKPVFLSVQQVGSKDSPVIIECSDFNSNGKHSLIGKVQKSLSDLEKLHLAGQGINFSLPTGAGQNKVLKSQLFVDKFTETVHHTFLEYLASGFELNFMVAIDFTASNGNPRLPDSLHYIDPSGRLNAYQRAIMDVGEVLQFYDSDKRFPAWGFGARPIDAPVSHCFNLNGSSSYSEVDGIQGIMTSYTSALFNVSLAGPTLFGPVINAAAMIASASLAQGSRKYYVLLIITDGVITDLQETKDALVSASDLPLSILIVGVGGADFKEMEILDADKGERLESSSGRLASRDIVQFVALRDVQYGEISVVQALLAELPSQFLTYMRIRNMKPIPP
notes: source: purified fusion protein from pMAL-c4x
binding result: binds
